Assay results as given in paper PMC6254361, “The properties of Msh2–Msh6 ATP binding mutants suggest a signal amplification mechanism in DNA mismatch repair” (The Journal of Biological Chemistry, 2018).

Assays:
Msh2(K694A)–Msh6 = Msh2(K694A)–Msh6 (S. cerevisiae, UniProt P25847 1-964; Q03834 1-1242, K694A); test: cell-based or functional assay
Msh2(K694M)–Msh6 = Msh2(K694M)–Msh6 (S. cerevisiae, UniProt P25847 1-964; Q03834 1-1242, K694M); test: cell-based or functional assay
Msh2(K694R)–Msh6 = Msh2(K694R)–Msh6 (S. cerevisiae, UniProt P25847 1-964; Q03834 1-1242, K694R); test: cell-based or functional assay
[1] = biological target: T1, S. cerevisiae Msh2–Msh6 (WT) (S. cerevisiae, UniProt P25847 1-964; Q03834 1-1242); test: SPR; Biacore T100; 236-bp GT mispair DNA held by biotin-streptavidin, other end blocked by lacO-LacI; 20 nM Msh2–Msh6, 250 μM ATP, 30 nM LacI for 100 s, then the same plus 40 nM Mlh1–Pms1 for 300 s; recruitment read as the increase in RU over steady-state Msh2–Msh6; 25 mM Tris pH 8, 4 mM MgCl2, 110 mM NaCl, 0.01% Igepal, 2 mM DTT, 2% glycerol; 10 °C, 20 μl/min; details: both partners purified
T1 construct: Msh2, S. cerevisiae, wild type; Msh6, S. cerevisiae, wild type; Heterodimer; also called WT Msh2–Msh6

Msh2–Msh6(K988A) = biological target: T2, Msh2–Msh6(K988A) (S. cerevisiae, UniProt P25847 1-964; Q03834 1-1242, K988A); test: as above; details: both partners purified
T2 construct: Msh2, S. cerevisiae, wild type; Msh6, S. cerevisiae, Walker A lysine mutant; also called Walker A Lys mutant Msh2–Msh6 complex

Msh2–Msh6(K988M) = biological target: T3, Msh2–Msh6(K988M) (S. cerevisiae, UniProt P25847 1-964; Q03834 1-1242, K988M); test: as above; details: both partners purified
T3 construct: Msh2, S. cerevisiae, wild type; Msh6, S. cerevisiae, Walker A lysine mutant; also called Walker A Lys mutant Msh2–Msh6 complex; source: purified

Msh2–Msh6(K988R) = biological target: T4, Msh2–Msh6(K988R) (S. cerevisiae, UniProt P25847 1-964; Q03834 1-1242, K988R); test: as above; details: both partners purified
T4 construct: Msh2, S. cerevisiae, wild type; Msh6, S. cerevisiae, Walker A lysine mutant; also called Walker A Lys mutant Msh2–Msh6 complex
T4 sequence (P25847 whole entry, chain 1 of 2): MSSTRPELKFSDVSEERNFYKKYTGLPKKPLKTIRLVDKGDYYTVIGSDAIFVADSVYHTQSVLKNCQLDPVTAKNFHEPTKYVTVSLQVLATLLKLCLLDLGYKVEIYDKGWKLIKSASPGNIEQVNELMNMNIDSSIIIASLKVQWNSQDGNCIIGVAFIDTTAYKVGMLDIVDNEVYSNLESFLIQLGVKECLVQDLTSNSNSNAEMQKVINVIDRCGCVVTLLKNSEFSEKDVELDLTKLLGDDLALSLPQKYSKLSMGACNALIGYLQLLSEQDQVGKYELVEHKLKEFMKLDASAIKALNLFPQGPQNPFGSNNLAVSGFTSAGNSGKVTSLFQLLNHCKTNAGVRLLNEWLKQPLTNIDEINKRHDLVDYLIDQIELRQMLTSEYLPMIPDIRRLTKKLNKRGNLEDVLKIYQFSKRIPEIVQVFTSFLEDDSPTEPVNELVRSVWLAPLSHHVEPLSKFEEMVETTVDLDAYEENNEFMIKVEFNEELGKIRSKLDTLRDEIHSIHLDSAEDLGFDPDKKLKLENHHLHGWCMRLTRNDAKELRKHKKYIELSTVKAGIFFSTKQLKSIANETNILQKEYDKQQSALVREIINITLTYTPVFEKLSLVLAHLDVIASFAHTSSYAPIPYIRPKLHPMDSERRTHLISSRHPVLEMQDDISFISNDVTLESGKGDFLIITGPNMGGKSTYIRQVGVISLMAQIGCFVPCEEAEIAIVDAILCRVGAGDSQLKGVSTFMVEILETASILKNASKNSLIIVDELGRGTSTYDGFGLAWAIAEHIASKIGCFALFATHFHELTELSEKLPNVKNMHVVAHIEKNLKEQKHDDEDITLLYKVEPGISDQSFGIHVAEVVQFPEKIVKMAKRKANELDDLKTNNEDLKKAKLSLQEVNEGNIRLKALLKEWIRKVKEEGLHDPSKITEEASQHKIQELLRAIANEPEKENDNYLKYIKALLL
T4 sequence (Q03834 whole entry K988R, chain 2 of 2): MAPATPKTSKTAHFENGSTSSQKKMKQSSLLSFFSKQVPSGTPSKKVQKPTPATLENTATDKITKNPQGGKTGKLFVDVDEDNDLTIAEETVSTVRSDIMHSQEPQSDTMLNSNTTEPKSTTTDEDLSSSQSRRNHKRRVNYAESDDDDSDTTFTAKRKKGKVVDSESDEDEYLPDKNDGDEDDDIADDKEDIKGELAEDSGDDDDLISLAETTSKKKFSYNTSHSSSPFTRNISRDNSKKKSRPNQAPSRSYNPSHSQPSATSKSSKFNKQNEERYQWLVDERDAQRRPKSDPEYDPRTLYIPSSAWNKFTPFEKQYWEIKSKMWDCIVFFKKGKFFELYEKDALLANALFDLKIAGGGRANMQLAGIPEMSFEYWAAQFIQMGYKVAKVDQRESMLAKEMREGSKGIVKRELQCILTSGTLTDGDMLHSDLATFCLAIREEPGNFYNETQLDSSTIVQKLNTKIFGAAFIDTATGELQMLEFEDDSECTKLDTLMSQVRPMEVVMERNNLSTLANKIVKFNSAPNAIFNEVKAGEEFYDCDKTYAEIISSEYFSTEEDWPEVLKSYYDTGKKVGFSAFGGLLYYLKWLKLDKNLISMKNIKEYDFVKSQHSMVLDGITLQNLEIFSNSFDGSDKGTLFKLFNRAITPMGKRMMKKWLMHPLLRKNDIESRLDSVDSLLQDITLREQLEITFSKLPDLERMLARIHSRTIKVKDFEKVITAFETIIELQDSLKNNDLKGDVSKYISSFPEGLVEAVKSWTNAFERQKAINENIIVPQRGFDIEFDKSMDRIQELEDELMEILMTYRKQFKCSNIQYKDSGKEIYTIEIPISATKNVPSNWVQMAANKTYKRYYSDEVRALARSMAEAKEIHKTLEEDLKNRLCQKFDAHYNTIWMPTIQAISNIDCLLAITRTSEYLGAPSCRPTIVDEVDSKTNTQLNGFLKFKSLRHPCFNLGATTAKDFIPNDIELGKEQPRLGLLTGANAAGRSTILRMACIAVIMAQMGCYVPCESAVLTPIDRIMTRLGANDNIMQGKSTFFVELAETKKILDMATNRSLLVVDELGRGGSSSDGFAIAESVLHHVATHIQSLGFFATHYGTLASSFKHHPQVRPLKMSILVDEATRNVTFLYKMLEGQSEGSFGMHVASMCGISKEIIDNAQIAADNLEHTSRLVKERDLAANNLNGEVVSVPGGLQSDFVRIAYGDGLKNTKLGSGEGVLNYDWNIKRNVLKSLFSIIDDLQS

Msh2(K694A)–Msh6, sequence (P25847 whole entry K694A, chain 1 of 2): as the sequence (P25847 whole entry, chain 1 of 2) above, with K694A counted along it
Msh2(K694A)–Msh6, sequence (Q03834 whole entry, chain 2 of 2): as the sequence (Q03834 whole entry K988R, chain 2 of 2) above, with R988K counted along it
Msh2(K694M)–Msh6, sequence (P25847 whole entry K694M, chain 1 of 2): as the sequence (P25847 whole entry, chain 1 of 2) above, with K694M counted along it
Msh2(K694M)–Msh6, sequence (Q03834 whole entry, chain 2 of 2): as the sequence (Q03834 whole entry K988R, chain 2 of 2) above, with R988K counted along it
Msh2(K694R)–Msh6, sequence (P25847 whole entry K694R, chain 1 of 2): as the sequence (P25847 whole entry, chain 1 of 2) above, with K694R counted along it
Msh2(K694R)–Msh6, sequence (Q03834 whole entry, chain 2 of 2): as the sequence (Q03834 whole entry K988R, chain 2 of 2) above, with R988K counted along it
T2 sequence (P25847 whole entry, chain 1 of 2): as the sequence (P25847 whole entry, chain 1 of 2) above
T2 sequence (Q03834 whole entry K988A, chain 2 of 2): as the sequence (Q03834 whole entry K988R, chain 2 of 2) above, with R988A counted along it
T1 sequence (P25847 whole entry, chain 1 of 2): as the sequence (P25847 whole entry, chain 1 of 2) above
T1 sequence (Q03834 whole entry, chain 2 of 2): as the sequence (Q03834 whole entry K988R, chain 2 of 2) above, with R988K counted along it
T3 sequence (P25847 whole entry, chain 1 of 2): as the sequence (P25847 whole entry, chain 1 of 2) above
T3 sequence (Q03834 whole entry K988M, chain 2 of 2): as the sequence (Q03834 whole entry K988R, chain 2 of 2) above, with R988M counted along it

Mlh1–Pms1 endonuclease nicking of a 3′ nicked mispaired DNA promoted by the Msh2–Msh6 variant (with PCNA, RFC-Δ1N), 0.1 and 2.5 mM ATP, relative to WT Msh2–Msh6 (Msh2(K694A)–Msh6): ~50 % of the nicking of WT Msh2–Msh6 | Mlh1–Pms1 endonuclease nicking of a 3′ nicked mispaired DNA promoted by the Msh2–Msh6 variant (with PCNA, RFC-Δ1N), 0.1 and 2.5 mM ATP, relative to WT Msh2–Msh6 (Msh2(K694M)–Msh6): ~50 % of the nicking of WT Msh2–Msh6 | Mlh1–Pms1 endonuclease nicking of a 3′ nicked mispaired DNA promoted by the Msh2–Msh6 variant (with PCNA, RFC-Δ1N), 0.1 and 2.5 mM ATP, relative to WT Msh2–Msh6 (Msh2(K694R)–Msh6): ~50 % of the nicking of WT Msh2–Msh6 | stoichiometry N [1]: 1.07 Mlh1–Pms1 per Msh2–Msh6 | binding result (Msh2–Msh6(K988A)): binds | binding result (Msh2–Msh6(K988M)): binds | binding result (Msh2–Msh6(K988R)): binds
B1: S. cerevisiae Mlh1–Pms1 (complex)
chain 1: MSLRIKALDASVVNKIAAGEIIISPVNALKEMMENSIDANATMIDILVKEGGIKVLQITDNGSGINKADLPILCERFTTSKLQKFEDLSQIQTYGFRGEALASISHVARVTVTTKVKEDRCAWRVSYAEGKMLESPKPVAGKDGTTILVEDLFFNIPSRLRALRSHNDEYSKILDVVGRYAIHSKDIGFSCKKFGDSNYSLSVKPSYTVQDRIRTVFNKSVASNLITFHISKVEDLNLESVDGKVCNLNFISKKSISPIFFINNRLVTCDLLRRALNSVYSNYLPKGNRPFIYLGIVIDPAAVDVNVHPTKREVRFLSQDEIIEKIANQLHAELSAIDTSRTFKASSISTNKPESLIPFNDTIESDRNRKSLRQAQVVENSYTTANSQLRKAKRQENKLVRIDASQAKITSFLSSSQQFNFEGSSTKRQLSEPKVTNVSHSQEAEKLTLNESEQPRDANTINDNDLKDQPKKKQKLGDYKVPSIADDEKNALPISKDGYIRVPKERVNVNLTSIKKLREKVDDSIHRELTDIFANLNYVGVVDEERRLAAIQHDLKLFLIDYGSVCYELFYQIGLTDFANFGKINLQSTNVSDDIVLYNLLSEFDELNDDASKEKIISKIWDMSSMLNEYYSIELVNDGLDNDLKSVKLKSLPLLLKGYIPSLVKLPFFIYRLGKEVDWEDEQECLDGILREIALLYIPDMVPKVDTSDASLSEDEKAQFINRKEHISSLLEHVLFPCIKRRFLAPRHILKDVVEIANLPDLYKVFERC
chain 2: MTQIHQINDIDVHRITSGQVITDLTTAVKELVDNSIDANANQIEIIFKDYGLESIECSDNGDGIDPSNYEFLALKHYTSKIAKFQDVAKVQTLGFRGEALSSLCGIAKLSVITTTSPPKADKLEYDMVGHITSKTTTSRNKGTTVLVSQLFHNLPVRQKEFSKTFKRQFTKCLTVIQGYAIINAAIKFSVWNITPKGKKNLILSTMRNSSMRKNISSVFGAGGMRGLEEVDLVLDLNPFKNRMLGKYTDDPDFLDLDYKIRVKGYISQNSFGCGRNSKDRQFIYVNKRPVEYSTLLKCCNEVYKTFNNVQFPAVFLNLELPMSLIDVNVTPDKRVILLHNERAVIDIFKTTLSDYYNRQELALPKRMCSQSEQQAQKRLKTEVFDDRSTTHESDNENYHTARSESNQSNHAHFNSTTGVIDKSNGTELTSVMDGNYTNVTDVIGSECEVSVDSSVVLDEGNSSTPTKKLPSIKTDSQNLSDLNLNNFSNPEFQNITSPDKARSLEKVVEEPVYFDIDGEKFQEKAVLSQADGLVFVDNECHEHTNDCCHQERRGSTDTEQDDEADSIYAEIEPVEINVRTPLKNSRKSISKDNYRSLSDGLTHRKFEDEILEYNLSTKNFKEISKNGKQMSSIISKRKSEAQENIIKNKDELEDFEQGEKYLTLTVSKNDFKKMEVVGQFNLGFIIVTRKVDNKYDLFIVDQHASDEKYNFETLQAVTVFKSQKLIIPQPVELSVIDELVVLDNLPVFEKNGFKLKIDEEEEFGSRVKLLSLPTSKQTLFDLGDFNELIHLIKEDGGLRRDNIRCSKIRSMFAMRACRSSIMIGKPLNKKTMTRVVHNLSELDKPWNCPHGRPTMRHLMELRDWSSFSKDYEI
notes: Mlh1, S. cerevisiae; Pms1, S. cerevisiae; also called MMR endonuclease Mlh1–Pms1
